# Literature values as cited in publication PMC2794832 (Journal of nuclear medicine : official publication, Society …, 2008).
# Tested on: tumors of HEK cells stably transfected to express only SSTR2
# Settings: mouse, in vivo
substance,measurement,value
"^111In-1,4,7,10-tetraazacyclododecane-1,4,7,10-tetraacetic acid-sst2-ANT [^111In-DOTA-sst2-ANT]",uptake of the radiopharmaceutical in tumors,high uptake
